Results taken from patent publication US20180133295A1 (AMAL THERAPEUTICS, published 2018).

B1: Z13Mad5Anaxa (other)
chain: MHHHHHHKRYKNRVASRKSRAKFKQLLQHYREVAAAKSSENDRLRLLLKESLKISQAVHAAHAEINEAGREVVGVGALKVPRNQDWLGVPRFAKFASFEAQGALANIAVDKANLDVEQLESIINFEKLTEWTGSSTVHEILCKLSLEGDHSTPPSAYGSVKPYTNFDAE
notes: Recombinant fusion protein; 18973 Da; also called fusion protein of cell-penetrating peptide Z13, MAD5 cargo and TLR peptide agonist Anaxa (C-terminal)
B2: AnaxaZ13Mad5 (other)
chain: MHHHHHHSTVHEILCKLSLEGDHSTPPSAYGSVKPYTNFDAEKRYKNRVASRKSRAKFKQLLQHYREVAAAKSSENDRLRLLLKESLKISQAVHAAHAEINEAGREVVGVGALKVPRNQDWLGVPRFAKFASFEAQGALANIAVDKANLDVEQLESIINFEKLTEWTGS
notes: Recombinant fusion protein; 18973 Da; also called AnaxZ13Mad5
B3: EDAZ13Mad5 (other)
chain: MHHHHHHNIDRPKGLAFTDVDVDSIKIAWESPQGQVSRYRVTYSSPEDGIRELFPAPDGEDDTAELQGLRPGSEYTVSVVALHDDMESQPLIGIQSTKRYKNRVASRKSRAKFKQLLQHYREVAAAKSSENDRLRLLLKESLKISQAVHAAHAEINEAGREVVGVGALKVPRNQDWLGVPRFAKFASFEAQGALANIAVDKANLDVEQLESIINFEKLTEWTGS
notes: Recombinant fusion protein; 25057 Da; also called fusion protein of TLR4 peptide agonist EDA, cell-penetrating peptide Z13 and MAD5 cargo

Legend:
human TLR2 = target: T1, human TLR2 (human, UniProt O60603 21-784); test: HEK-Blue hTLR2 cells, NF-κB/AP1 reporter and IL-8 ELISA; binding inferred from activation
T1 construct: whole, on cells; Expressed on the HEK-Blue hTLR2 reporter cell line; also called hTLR2; Toll-like receptor 2

human TLR4 = target: T2, human TLR4 (human, UniProt O00206 24-839); test: HEK-hTLR4 cells, IL-8 ELISA; binding inferred from activation
T2 construct: whole, on cells; also called hTLR4; Toll-like receptor 4
T2 sequence (O00206 24-839): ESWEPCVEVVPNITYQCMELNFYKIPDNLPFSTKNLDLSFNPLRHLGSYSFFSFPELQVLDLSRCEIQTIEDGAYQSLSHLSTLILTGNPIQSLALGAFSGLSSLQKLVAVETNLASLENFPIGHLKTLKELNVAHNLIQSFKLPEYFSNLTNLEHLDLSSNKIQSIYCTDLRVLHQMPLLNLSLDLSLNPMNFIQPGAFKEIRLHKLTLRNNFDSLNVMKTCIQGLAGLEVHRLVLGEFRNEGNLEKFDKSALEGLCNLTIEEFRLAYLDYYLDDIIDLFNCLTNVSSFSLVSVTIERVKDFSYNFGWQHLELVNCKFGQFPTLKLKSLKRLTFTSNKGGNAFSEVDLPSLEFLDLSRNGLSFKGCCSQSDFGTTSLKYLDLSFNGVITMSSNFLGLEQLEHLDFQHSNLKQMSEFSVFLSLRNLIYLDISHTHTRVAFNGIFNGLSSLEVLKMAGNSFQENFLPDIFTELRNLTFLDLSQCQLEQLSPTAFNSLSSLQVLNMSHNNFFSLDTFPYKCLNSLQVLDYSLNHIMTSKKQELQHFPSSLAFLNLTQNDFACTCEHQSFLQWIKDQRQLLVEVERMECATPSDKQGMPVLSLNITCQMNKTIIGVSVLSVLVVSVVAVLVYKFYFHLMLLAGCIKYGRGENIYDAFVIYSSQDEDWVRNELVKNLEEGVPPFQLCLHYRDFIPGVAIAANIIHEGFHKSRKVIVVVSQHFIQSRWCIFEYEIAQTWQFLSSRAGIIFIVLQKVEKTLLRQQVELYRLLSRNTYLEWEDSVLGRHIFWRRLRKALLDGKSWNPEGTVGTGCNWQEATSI

T1 sequence (O60603 21-784): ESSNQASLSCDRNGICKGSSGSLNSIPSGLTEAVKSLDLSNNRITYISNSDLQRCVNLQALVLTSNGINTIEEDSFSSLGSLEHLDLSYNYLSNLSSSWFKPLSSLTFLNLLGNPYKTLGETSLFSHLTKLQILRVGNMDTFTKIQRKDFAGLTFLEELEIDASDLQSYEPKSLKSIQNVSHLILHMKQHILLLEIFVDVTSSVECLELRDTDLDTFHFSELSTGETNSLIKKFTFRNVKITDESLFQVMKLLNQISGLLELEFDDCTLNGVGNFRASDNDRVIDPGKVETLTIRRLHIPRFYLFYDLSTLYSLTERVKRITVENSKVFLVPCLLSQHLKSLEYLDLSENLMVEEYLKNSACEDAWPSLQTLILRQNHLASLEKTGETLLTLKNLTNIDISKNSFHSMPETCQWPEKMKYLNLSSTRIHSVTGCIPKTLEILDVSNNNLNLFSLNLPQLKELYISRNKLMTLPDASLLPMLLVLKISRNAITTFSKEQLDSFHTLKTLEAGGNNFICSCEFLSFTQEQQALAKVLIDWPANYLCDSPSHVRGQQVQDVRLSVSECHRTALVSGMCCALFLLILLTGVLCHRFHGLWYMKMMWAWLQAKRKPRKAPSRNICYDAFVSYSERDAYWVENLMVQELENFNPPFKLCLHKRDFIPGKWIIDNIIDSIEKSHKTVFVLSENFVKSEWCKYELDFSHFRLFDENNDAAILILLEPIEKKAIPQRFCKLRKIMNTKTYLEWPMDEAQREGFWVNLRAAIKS

Binder	binding result (human TLR2)	binding result (human TLR4)
B1	binds	binds
B2	binds	
B3		binds
